The source of these data is US20110263454A1, “Methods of Identifying Functional Characteristics of Promoters, Transcription Modifying Proteins and Transcription Modulating Agents” (Salk Institute for Biological Studies, priority 2008, published 2011).

Holding throughout (format): cell-based, mouse
The test system of one assay is mUCP1 promoter. Kind of assay: NHR-promoter luciferase screen, mUCP1 promoter. The conditions noted are these: for Luc. act., normalized to lacZ / Normalized Luc. act., normalized to control: mUCP1 promoter reporter, co-transfected HR, with or without its ligand; for Normalized Luc. act., normalized to control: relative to control; for luciferase activity normalized to lacZ activity and to a control, mUCP!: mUCP! promoter-luciferase, CV-1 cells, NHR +/- ligand, control = 1.00. Summed up: (§1)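 CV-1 cells were co-transfected with 50 ng NHR (homodimer or NHR/RXR heterodimer), 100 ng promoter-luciferase construct and 50 ng LacZ. Luciferase was normalized to LacZ and to a no-NHR/no-ligand control.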

For a further assay, the system named is mPgc1b promoter. Kind of assay: NHR-promoter luciferase screen, mPgc1b promoter. The conditions noted are these: for Luc. act., normalized to lacZ / Normalized Luc. act., normalized to control: PGC1b promoter reporter, co-transfected HR, without or with its ligand; for Normalized Luc. act., normalized to control: relative to control; for luciferase activity normalized to lacZ activity and to a control, mPgc1b: mPgc1b promoter-luciferase, CV-1 cells, NHR +/- ligand, control = 1.00. The method, boiled down: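 Luciferase reporter read-out after co-expression in CV-1 cells of V5H6-tagged receptor (alone or with RXR), the promoter construct and LacZ. Values are luciferase/LacZ relative to a control lacking NHR or ligand; orphan receptors tested ligand-free.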

A further assay deals with mAdiponectin promoter. The experiment in a line: NHR-promoter luciferase screen, mAdiponectin promoter. Particulars: for Luc. act., normalized to lacZ / Normalized Luc. act., normalized to control: Adiponectin, HR component without or with its ligand; for mAdiponectin promoter reporter activity: transcription factor +/- ligand, control = 1.00. The method, boiled down: as §1

A further assay concerns mAgrp promoter. The experiment in a line: NHR-promoter luciferase screen, mAgrp promoter. The conditions noted are these: for Results of assays of transcription factor (+/- ligand) with mAgrp: Table 6d, luciferase activity relative to control (control = 1.00); for Luc. act., normalized to lacZ / Normalized Luc. act., normalized to control: mAgrp promoter, HR component with or without ligand; for Normalized Luc. act., normalized to control: relative to control. Summed up: as §1

The next assay concerns mGhrelin promoter. The experiment in a line: NHR-promoter luciferase screen, mGhrelin promoter. The conditions noted are these: for Luc. act., normalized to lacZ / Normalized Luc. act., normalized to control: Table 8, mGhrelin; for Results of assays of transcription factor (+/- ligand) with mGhrelin: Table 6d, luciferase activity relative to control (control = 1.00). The method, boiled down:
as §1

B1: PR: Progesterone Receptor (NR3C3), cDNA driver (protein, UniProt P06401 1-933, looked up)
Progesterone receptor: MTELKAKGPRAPHVAGGPPSPEVGSPLLCRPAAGPFPGSQTSDTLPEVSAIPISLDGLLFPRPCQGQDPSDEKTQDQQSLSDVEGAYSRAEATRGAGGSSSSPPEKDSGLLDSVLDTLLAPSGPGQSQPSPPACEVTSSWCLFGPELPEDPPAAPATQRVLSPLMSRSGCKVGDSSGTAAAHKVLPRGLSPARQLLLPASESPHWSGAPVKPSPQAAAVEVEEEDGSESEESAGPLLKGKPRALGGAAAGGGAAAVPPGAAAGGVALVPKEDSRFSAPRVALVEQDAPMAPGRSPLATTVMDFIHVPILPLNHALLAARTRQLLEDESYDGGAGAASAFAPPRSSPCASSTPVAVGDFPDCAYPPDAEPKDDAYPLYSDFQPPALKIKEEEEGAEASARSPRSYLVAGANPAAFPDFPLGPPPPLPPRATPSRPGEAAVTAAPASASVSSASSSGSTLECILYKAEGAPPQQGPFAPPPCKAPGASGCLLPRDGLPSTSASAAAAGAAPALYPALGLNGLPQLGYQAAVLKEGLPQVYPPYLNYLRPDSEASQSPQYSFESLPQKICLICGDEASGCHYGVLTCGSCKVFFKRAMEGQHNYLCAGRNDCIVDKIRRKNCPACRLRKCCQAGMVLGGRKFKKFNKVRVVRALDAVALPQPVGVPNESQALSQRFTFSPGQDIQLIPPLINLLMSIEPDVIYAGHDNTKPDTSSSLLTSLNQLGERQLLSVVKWSKSLPGFRNLHIDDQITLIQYSWMSLMVFGLGWRSYKHVSGQMLYFAPDLILNEQRMKESSFYSLCLTMWQIPQEFVKLQVSQEEFLCMKVLLLLNTIPLEGLRSQTQFEEMRSSYIRELIKAIGLRQKGVVSSSQRFYQLTKLLDNLHDLVKQLHLYCLNTFIQSRALSVEFPEMMSEVIAAQLPKILAGMVKPLLFHKK
With B1, in the assay with mUCP1 promoter, the “Luc. act., normalized to lacZ” value is on record as 5.4; the “Normalized Luc. act., normalized to control” value is 1.2; the “luciferase activity normalized to lacZ activity and to a control, mUCP!” value (from here on “luciferase activity normalized … mUCP!”) was found to be 1.21. Also, in the assay with mPgc1b promoter, the “Luc. act., normalized to lacZ” value was 8.9; the “Normalized Luc. act., normalized to control” value came to 0.7; the “luciferase activity normalized to lacZ activity and to a control, mPgc1b” value (“luciferase activity normalized … mPgc1b” for short) was 0.75. For the same molecule, in the assay on mAdiponectin promoter, the “Luc. act., normalized to lacZ” value came to 52.9; the “Normalized Luc. act., normalized to control” value worked out at 0.8; the “mAdiponectin promoter reporter activity” value is on record as 0.84. Also, in the assay on mAgrp promoter, the “Results of assays of transcription factor (+/- ligand) with mAgrp” value (from here on “Results of assays … with mAgrp”) was found to be 1.13; the “Luc. act., normalized to lacZ” value was 44.7; the “Normalized Luc. act., normalized to control” value came out at 1.1. Moreover, in the assay on mGhrelin promoter, the “Luc. act., normalized to lacZ” value was found to be 53.6; the “Normalized Luc. act., normalized to control” value amounted to 1.0; the “Results of assays of transcription factor (+/- ligand) with mGhrelin” value (“Results of assays … with mGhrelin” for short) worked out at 1.03.

B2: NR4a3: NR4a3 (NR4A3; NOR1), nuclear hormone receptor cDNA driver (protein, UniProt Q92570 1-626, looked up)
Nuclear receptor subfamily 4 …: MPCVQAQYSPSPPGSSYAAQTYSSEYTTEIMNPDYTKLTMDLGSTEITATATTSLPSISTFVEGYSSNYELKPSCVYQMQRPLIKVEEGRAPSYHHHHHHHHHHHHHHQQQHQQPSIPPASSPEDEVLPSTSMYFKQSPPSTPTTPAFPPQAGALWDEALPSAPGCIAPGPLLDPPMKAVPTVAGARFPLFHFKPSPPHPPAPSPAGGHHLGYDPTAAAALSLPLGAAAAAGSQAAALESHPYGLPLAKRAAPLAFPPLGLTPSPTASSLLGESPSLPSPPSRSSSSGEGTCAVCGDNAACQHYGVRTCEGCKGFFKRTVQKNAKYVCLANKNCPVDKRRRNRCQYCRFQKCLSVGMVKEVVRTDSLKGRRGRLPSKPKSPLQQEPSQPSPPSPPICMMNALVRALTDSTPRDLDYSRYCPTDQAAAGTDAEHVQQFYNLLTASIDVSRSWAEKIPGFTDLPKEDQTLLIESAFLELFVLRLSIRSNTAEDKFVFCNGLVLHRLQCLRGFGEWLDSIKDFSLNLQSLNLDIQALACLSALSMITERHGLKEPKRVEELCNKITSSLKDHQSKGQALEPTESKVLGALVELRKICTLGLQRIFYLKLEDLVSPPSIIDKLFLDTLPF
For the molecule B2, in the assay on mUCP1 promoter, the “Luc. act., normalized to lacZ” value is recorded as 3.8; the “Normalized Luc. act., normalized to control” value was determined as 0.9; the “luciferase activity normalized … mUCP!” value turned out to be 0.86. For the same molecule, in the assay with mPgc1b promoter, the “Luc. act., normalized to lacZ” value came out at 9.2; the “Normalized Luc. act., normalized to control” value is 0.8; the “luciferase activity normalized … mPgc1b” value stood at 0.77. Besides, in the assay with mAdiponectin promoter, the “Luc. act., normalized to lacZ” value is reported as 35.7; the “Normalized Luc. act., normalized to control” value amounted to 0.6; the “mAdiponectin promoter reporter activity” value stood at 0.57. For the same molecule, in the assay on mAgrp promoter, the “Results of assays … with mAgrp” value came out at 0.88; the “Luc. act., normalized to lacZ” value was determined as 34.7; the “Normalized Luc. act., normalized to control” value was found to be 0.9. In the assay with mGhrelin promoter, the “Luc. act., normalized to lacZ” value came to 29.4; the “Normalized Luc. act., normalized to control” value was 0.6; the “Results of assays … with mGhrelin” value is 0.56.

B3: NR4a2: NR4a2 (NR4A2; NURR1), nuclear hormone receptor cDNA driver (protein, UniProt P43354 1-598, looked up)
Nuclear receptor subfamily 4 …: MPCVQAQYGSSPQGASPASQSYSYHSSGEYSSDFLTPEFVKFSMDLTNTEITATTSLPSFSTFMDNYSTGYDVKPPCLYQMPLSGQQSSIKVEDIQMHNYQQHSHLPPQSEEMMPHSGSVYYKPSSPPTPTTPGFQVQHSPMWDDPGSLHNFHQNYVATTHMIEQRKTPVSRLSLFSFKQSPPGTPVSSCQMRFDGPLHVPMNPEPAGSHHVVDGQTFAVPNPIRKPASMGFPGLQIGHASQLLDTQVPSPPSRGSPSNEGLCAVCGDNAACQHYGVRTCEGCKGFFKRTVQKNAKYVCLANKNCPVDKRRRNRCQYCRFQKCLAVGMVKEVVRTDSLKGRRGRLPSKPKSPQEPSPPSPPVSLISALVRAHVDSNPAMTSLDYSRFQANPDYQMSGDDTQHIQQFYDLLTGSMEIIRGWAEKIPGFADLPKADQDLLFESAFLELFVLRLAYRSNPVEGKLIFCNGVVLHRLQCVRGFGEWIDSIVEFSSNLQNMNIDISAFSCIAALAMVTERHGLKEPKRVEELQNKIVNCLKDHVTFNNGGLNRPNYLSKLLGKLPELRTLCTQGLQRIFYLKLEDLVPPPAIIDKLFLDTLPF
As for B3, in the assay with mUCP1 promoter, the “Luc. act., normalized to lacZ” value worked out at 4.4; the “Normalized Luc. act., normalized to control” value turned out to be 1.0; the “luciferase activity normalized … mUCP!” value is reported as 0.99. Moreover, in the assay with mPgc1b promoter, the “Luc. act., normalized to lacZ” value is given as 9.0; the “Normalized Luc. act., normalized to control” value is 0.8; the “luciferase activity normalized … mPgc1b” value came to 0.76. Further, in the assay with mAdiponectin promoter, the “Luc. act., normalized to lacZ” value is 35.8; the “Normalized Luc. act., normalized to control” value is given as 0.6; the “mAdiponectin promoter reporter activity” value worked out at 0.57. Besides, in the assay on mAgrp promoter, the “Results of assays … with mAgrp” value came to 0.88; the “Luc. act., normalized to lacZ” value is 35.1; the “Normalized Luc. act., normalized to control” value turned out to be 0.9. Also, in the assay on mGhrelin promoter, the “Luc. act., normalized to lacZ” value was 31.5; the “Normalized Luc. act., normalized to control” value stood at 0.6; the “Results of assays … with mGhrelin” value was 0.60.
